Measured values as given in the supplement of paper PMC7877785.
± gives the uncertainty stated by the source.

Test: self-splicing fitness, log relative to wild type (ln ratio); higher = more splicing; Tetrahymena group I intron in knt gene, E. coli kanamycin selection, DiMSum; sequences stand for … in CUCUCU…GGAGGGAAAAGUUAUCAGGCAUGCACCUGGUAGCUAGUCUUUAAACCAAUAGAUUGCAUCGGUUUAAAAGGCAAGACCGUCAAAUUGCGGGAAAGGGGUCAACAGCCGUUCAGUACCAAGUCUCAGGGGAAACUUUGAGAUGGCCUUGCAAAGGGUAUGGUAAUAAGCUGACGGACAUGGUCCUAACCACGCAGCCAAGUCCUAAGUCAACAGAUCUUCUGUUGAUAUGGAUGCAGUUCACAGACUAAAUGUCGGUCGGGGAAGAUGUAUUCUUCUCAUAAGAUAUAGUCGGACCUCUCCUUAAUGGGAGCUAGCGGAUGAAGUGAUGCAACACUGGAGCCGCUGGGAACUAAUUUGUAUGCGAAAGUAUAUUGAUUAGUUUUGGAGUACUCGUGGUCG
Method in brief: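 DiMSum derived fitness as the error-weighted combination of fold changes across replicates, kanamycin versus no kanamycin, normalised to wild type. E. coli BL21(DE3) held the library, which randomised all eight P1ex-region intron nucleotides within the knt kanamycin-resistance gene on pET-22b(+). Six replicate transformations grew overnight at 37°C or 30°C on LB agar with or without 25 μg/mL kanamycin, also containing 100 μg/mL carbenicillin, 50 μM IPTG and 0.2% rhamnose, and pooled colonies were amplicon-sequenced on an Illumina HiSeq 2500.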

Sequence	self-splicing fitness (ln) (30 °C)	self-splicing fitness (ln) (37 °C)
UUCCAGCAAUAUUACGGGCU	-4.67 ± 0.31	-2.18 ± 0.17
UUCCAGCAAUAUUACGGUAA	-0.236 ± 0.087	-0.0663 ± 0.086
UUCCAGCAAUAUUACGGUGC	-1.9 ± 0.16	-1.23 ± 0.18
UUCCAGCAAUAUUACGGUUC	-2.81 ± 0.16	-1.99 ± 0.24
UUCCAGCAAUAUUACGUAGA	-0.592 ± 0.076	-0.502 ± 0.093
UUCCAGCAAUAUUACGUAGU	-1.32 ± 0.093	-1.57 ± 0.12
UUCCAGCAAUAUUACGUAUU	-3.21 ± 0.18	-1.7 ± 0.19
UUCCAGCAAUAUUACGUCGA	-0.549 ± 0.099	0.355 ± 0.11
UUCCAGCAAUAUUACGUCGU	-4.1 ± 0.19	-1.85 ± 0.12
UUCCAGCAAUAUUACGUGUA	-0.989 ± 0.058	-0.572 ± 0.064
UUCCAGCAAUAUUACGUGUG	-0.736 ± 0.04	-0.164 ± 0.055
UUCCAGCAAUAUUACGUGUU	-4.2 ± 0.25	-2.48 ± 0.21
UUCCAGCAAUAUUACGUUGA	-1.63 ± 0.078	-1.17 ± 0.092
UUCGAGCAAUAUUACGAAAG	-2.66 ± 0.36	–
UUCGAGCAAUAUUACGAACA	-2.9 ± 0.28	-1.73 ± 0.18
UUCGAGCAAUAUUACGAAGU	–	-1.57 ± 0.32
UUCGAGCAAUAUUACGAAUC	–	-2.97 ± 0.4
UUCGAGCAAUAUUACGAGCU	-3.65 ± 0.43	-2.44 ± 0.45
UUCGAGCAAUAUUACGAUUU	-4.18 ± 0.28	-2.19 ± 0.2
UUCGAGCAAUAUUACGCAUU	–	-2.81 ± 0.43
UUCGAGCAAUAUUACGCCUA	-1.67 ± 0.11	-1.39 ± 0.097
UUCGAGCAAUAUUACGCGCA	-0.15 ± 0.13	-0.296 ± 0.17
UUCGAGCAAUAUUACGCUAC	–	-0.0805 ± 0.34
UUCGAGCAAUAUUACGCUGU	-3.54 ± 0.2	-2.14 ± 0.21
UUCGAGCAAUAUUACGGACU	-4.76 ± 0.38	-2.63 ± 0.21
UUCGAGCAAUAUUACGGAUU	-3.84 ± 0.23	-3.1 ± 0.29

Sequence	self-splicing fitness (ln) (30 °C)	self-splicing fitness (ln) (37 °C)
UUCGAGCAAUAUUACGGCAA	-0.587 ± 0.099	-0.26 ± 0.12
UUCGAGCAAUAUUACGGCUG	-2.58 ± 0.23	-1.81 ± 0.22
UUCGAGCAAUAUUACGGCUU	-3.14 ± 0.18	-2.65 ± 0.33
UUCGAGCAAUAUUACGGGCU	–	-3.81 ± 0.42
UUCGAGCAAUAUUACGGUAG	-3.12 ± 0.31	-0.753 ± 0.14
UUCGAGCAAUAUUACGGUUA	-1.19 ± 0.13	-1.05 ± 0.1
UUCUAGCAAUAUUACGACAA	-0.37 ± 0.12	-0.0185 ± 0.17
UUCUAGCAAUAUUACGACGA	-0.439 ± 0.12	0.731 ± 0.14
UUCUAGCAAUAUUACGACGC	-2.76 ± 0.44	–
UUCUAGCAAUAUUACGAGGG	–	-1.5 ± 0.17
UUCUAGCAAUAUUACGAUUA	-0.696 ± 0.14	0.682 ± 0.12
UUCUAGCAAUAUUACGCCUG	-1.79 ± 0.4	-1.6 ± 0.49
UUCUAGCAAUAUUACGCGAG	-2.97 ± 0.28	-1.45 ± 0.21
UUCUAGCAAUAUUACGCGGU	-2.74 ± 0.2	-0.435 ± 0.24
UUCUAGCAAUAUUACGGACU	-1.6 ± 0.17	-1.16 ± 0.19
UUCUAGCAAUAUUACGGAGC	-2.48 ± 0.44	–
UUCUAGCAAUAUUACGGCAU	-1.81 ± 0.16	-1.58 ± 0.19
UUCUAGCAAUAUUACGUAUU	-3.61 ± 0.33	-2.57 ± 0.25
UUCUAGCAAUAUUACGUCAC	–	-2.28 ± 0.37
UUCUAGCAAUAUUACGUGAA	-0.339 ± 0.066	-0.148 ± 0.082
UUCUAGCAAUAUUACGUGGA	-1.73 ± 0.31	-1.15 ± 0.18
UUCUAGCAAUAUUACGUUAU	-1.76 ± 0.26	-2.14 ± 0.27
UUGAAGCAAUAUUACGAAAA	-0.641 ± 0.12	0.066 ± 0.15
UUGAAGCAAUAUUACGAAAU	-3.51 ± 0.13	-0.963 ± 0.09
UUGAAGCAAUAUUACGAUAU	-1.97 ± 0.075	-1.03 ± 0.1
